The source of these data is US20220403023A1.

For experiment [1], the target named is human CD47 ECD protein (human) (UniProt Q08722). The experiment in a line: ELISA on plate-coated human CD47 ECD (1 µg/mL), goat anti-human IgG-Fc-HRP, OD450; blank (Neg) 0.102. (An ELISA detects its analyte on a solid surface through an enzyme-linked reagent.)
Experiment [2] has as its target human CD47 on engineered CHO-K1 cells (human) (UniProt Q08722). The experiment in a line: competition FACS against human SIRPα-His (1 µg/mL) on CHOK1-huCD47 cells; ligand only 1086.
Experiment [3] addresses cynomolgus monkey CD47 on engineered CHO-K1 cells (cynomolgus monkey). Put plainly: FACS on CHO-K1 cells expressing cynomolgus CD47 (CHOK1-cynoCD47), goat anti-human IgG-Fc PE; blank (Neg) 47.6.
The target of experiment [4] is human CD47 ECD protein (human) (UniProt Q08722). The experiment in a line: competition ELISA against human SIRPα-His (1 µg/mL) on plate-coated human CD47 ECD; ligand only 1.438.
The target in experiment [5] is human CD47 on engineered CHO-K1 cells (human) (UniProt Q08722). The experiment in a line: FACS on CHO-K1 cells expressing human CD47 (CHOK1-huCD47), goat anti-human IgG-Fc PE; blank (Neg) 34.8.
Experiment [6] concerns the target CD47 on human red blood cells (human) (UniProt Q08722). The experiment in a line: FACS on human red blood cells, goat anti-human IgG-Fc PE; blank (Neg) 232.
Experiment [7] deals with CD47 on human origin tumor cells (human) (UniProt Q08722). The experiment in a line: FACS on A375 cells.
For experiment [8] the target is unchanged. Put plainly: FACS on HepG2 cells.
Experiment [9] shares this target. The experiment in a line: FACS on Jurkat.268 cells.
For experiment [10] the target is unchanged. Put plainly: FACS on BT474 cells.
Experiment [11] shares this target. Put plainly: FACS on A431 cells.
The target is the same in experiment [12]. The experiment in a line: FACS on HT29 cells.
Experiment [13] shares this target. Put plainly: FACS on Hut78 cells.
The target is the same in experiment [14]. Put plainly: FACS on MDA-MB-453 cells.
Experiment [15] has the same target. The experiment in a line: FACS on A204 cells.
Experiment [16] has as its target HER3.his (Homo sapiens (Human)) (UniProt P21860). Put plainly: non-specific binding ELISA, protein coated 1 µg/mL.
Another experiment deals with 4-1B8.his. Put plainly: non-specific binding ELISA, protein coated 1 µg/mL.
Sequence of 4-1B8.his (Q07011 24-186): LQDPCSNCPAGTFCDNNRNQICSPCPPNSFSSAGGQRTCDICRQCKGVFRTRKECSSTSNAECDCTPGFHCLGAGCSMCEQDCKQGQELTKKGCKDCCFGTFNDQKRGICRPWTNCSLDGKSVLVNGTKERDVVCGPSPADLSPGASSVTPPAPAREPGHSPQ
Another experiment addresses CD40.his. The experiment in a line: non-specific binding ELISA, protein coated 1 µg/mL.
The next experiment concerns the target VEGFR2.his. Put plainly: non-specific binding ELISA, protein coated 1 µg/mL.
In the next experiment the target is CD22.his. Put plainly: non-specific binding ELISA, protein coated 1 µg/mL.
Another experiment has as its target CD3.his. Put plainly: non-specific binding ELISA, protein coated 1 µg/mL.
The target in the next experiment is Factor Eight. Put plainly: non-specific binding ELISA, protein coated 1 µg/mL.
Another experiment has as its target CD147.his. The experiment in a line: non-specific binding ELISA, protein coated 1 µg/mL.
The next experiment addresses VEGF.his. Put plainly: non-specific binding ELISA, protein coated 1 µg/mL.
The target in another experiment is OX40.his. The experiment in a line: non-specific binding ELISA, protein coated 1 µg/mL.
Sequence of OX40.his (P43489 29-214): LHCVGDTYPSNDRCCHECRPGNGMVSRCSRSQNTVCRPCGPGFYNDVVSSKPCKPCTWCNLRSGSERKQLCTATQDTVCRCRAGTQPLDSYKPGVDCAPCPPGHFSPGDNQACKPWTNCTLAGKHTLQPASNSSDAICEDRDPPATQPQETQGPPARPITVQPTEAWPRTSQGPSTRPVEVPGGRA
The target in a further experiment is HSA. (UniProt P02768). Put plainly: non-specific binding ELISA, protein coated 1 µg/mL.
A further experiment deals with FGFR.his. Put plainly: non-specific binding ELISA, protein coated 1 µg/mL.
The next experiment concerns the target CTLA4.his. Put plainly: non-specific binding ELISA, protein coated 1 µg/mL.
Experiment [17] concerns the target PD-1.his (Homo sapiens (Human)) (UniProt Q15116). Put plainly: non-specific binding ELISA, protein coated 1 µg/mL.
Experiment [18] deals with CD47 on human origin tumor cells (human) (UniProt Q08722). Put plainly: FACS on 293F cells.
The target is the same in experiment [19]. Put plainly: FACS on Ramos cells.
For experiment [20] the target is unchanged. The experiment in a line: FACS on FaOb cells.
Experiment [21] has the same target. The experiment in a line: FACS on CaLu-6 cells.
Experiment [22] has the same target. Put plainly: FACS on BxPC-3 cells.

Sequence of VEGFR2.his (P35968 20-764): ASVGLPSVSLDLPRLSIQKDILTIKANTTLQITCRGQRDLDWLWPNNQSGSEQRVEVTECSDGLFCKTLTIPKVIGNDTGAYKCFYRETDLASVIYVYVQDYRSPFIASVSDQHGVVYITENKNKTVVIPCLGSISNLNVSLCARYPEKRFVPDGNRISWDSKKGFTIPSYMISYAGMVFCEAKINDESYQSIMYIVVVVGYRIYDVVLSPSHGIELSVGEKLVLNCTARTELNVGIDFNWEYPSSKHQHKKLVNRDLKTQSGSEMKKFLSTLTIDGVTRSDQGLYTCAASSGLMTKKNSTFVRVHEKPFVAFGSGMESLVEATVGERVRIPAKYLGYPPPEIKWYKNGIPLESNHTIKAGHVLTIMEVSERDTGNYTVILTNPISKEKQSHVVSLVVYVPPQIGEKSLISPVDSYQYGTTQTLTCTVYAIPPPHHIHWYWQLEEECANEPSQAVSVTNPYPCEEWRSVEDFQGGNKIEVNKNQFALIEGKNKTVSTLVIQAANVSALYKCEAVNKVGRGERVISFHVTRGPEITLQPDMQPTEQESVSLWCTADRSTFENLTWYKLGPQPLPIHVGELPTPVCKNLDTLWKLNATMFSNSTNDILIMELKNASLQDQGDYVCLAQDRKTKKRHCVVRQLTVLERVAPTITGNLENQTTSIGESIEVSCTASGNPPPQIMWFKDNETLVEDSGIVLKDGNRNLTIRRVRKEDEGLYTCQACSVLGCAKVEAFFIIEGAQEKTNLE
Sequence of CD40.his (P25942 21-193): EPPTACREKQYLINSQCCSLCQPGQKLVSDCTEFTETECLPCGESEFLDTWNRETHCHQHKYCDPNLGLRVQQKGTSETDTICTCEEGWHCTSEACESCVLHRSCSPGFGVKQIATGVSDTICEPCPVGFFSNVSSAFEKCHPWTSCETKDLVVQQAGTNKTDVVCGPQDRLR
Sequence of CTLA4.his (P16410 36-161): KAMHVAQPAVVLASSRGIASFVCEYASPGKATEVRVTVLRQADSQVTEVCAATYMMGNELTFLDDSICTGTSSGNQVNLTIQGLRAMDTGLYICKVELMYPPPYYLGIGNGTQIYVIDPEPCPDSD
Sequence of PD-1.his (Homo sapiens (Human)) (Q15116 25-170 limits assumed): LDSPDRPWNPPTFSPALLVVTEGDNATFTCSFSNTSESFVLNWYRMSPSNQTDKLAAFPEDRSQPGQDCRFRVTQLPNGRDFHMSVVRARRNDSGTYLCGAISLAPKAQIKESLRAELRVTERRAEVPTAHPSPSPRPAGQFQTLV

In [1], IgG4 isotype control (antibody) gave a Max OD of 0.123 OD450. In addition, the Max Inhibit% was 12.2% in experiment [2] and 21.2% in experiment [4]. For the same substance, in experiment [2], the Min MFI was 953 MFI. In addition, the Max MFI in experiment [3] was 97.9 MFI; in [5] it was 66 MFI; in experiment [6] it was 238 MFI. The substance also registered a Min OD in experiment [4] of 1.13 OD450.
Turning to hIgG4K Isotype control (antibody), the MFI in [7] was found to be 22.8; in experiment [8] it was 32.2; in experiment [9] it was 36.9; in experiment [10], 20.8; in [11], 39.5; in [12], 44.3. Moreover, the MFI in [13] worked out at 49.7; in [14], 32.2; in [15], 34.7; in experiment [18], 56.4; in [19] it was 74.4; in experiment [20] it was 36.2. Besides, the MFI stood at 23.3 in experiment [21] and 42.9 in experiment [22]. Besides, the ELISA-OD450 in experiment [16] was 0.044; with 4-1B8.his, 0.0463; with CD40.his, 0.213; with VEGFR2.his, 0.0432; with CD22.his it was 0.0451; in the experiment with CD3.his, 0.0479. Also, the ELISA-OD450 with Factor Eight was 0.181; in the experiment with CD147.his, 0.0424; in the experiment with VEGF.his, 0.0452; in the experiment with OX40.his, 0.0508; with HSA., 0.322; with FGFR.his it was 0.133. For the same substance, the ELISA-OD450 is 0.0562 with CTLA4.his and 3.71 in [17].
hIgG4L Isotype control (antibody): the MFI in [7] came out at 49.5; in [8], 27.3; in experiment [9] it was 64.3; in experiment [10], 19.1; in [11], 251; in experiment [12], 45.7. The MFI in experiment [13] is 50.2; in [14], 28.3; in [15], 42.4; in experiment [18], 28.7; in experiment [19], 68.4; in [20], 429. Moreover, the results for the MFI in experiment [21] and in experiment [22] were 88.4 and 110, respectively. The ELISA-OD450 in [16] worked out at 0.0445; in the experiment with 4-1B8.his it was 0.0463; with CD40.his, 0.205; with VEGFR2.his, 0.0441; with CD22.his, 0.0467; with CD3.his it was 0.0518. Moreover, the ELISA-OD450 with Factor Eight is 0.0481; with CD147.his, 0.0443; in the experiment with VEGF.his, 0.0463; with OX40.his, 0.051; in the experiment with HSA., 0.335; with FGFR.his, 0.137. Moreover, the results for the ELISA-OD450 (with CTLA4.his; in experiment [17]) were 0.0571 and 0.227, respectively.
